Ends that are not written are not given here.
Each binder was assayed against human Fc region manufactured by Jackson ImmunoResearch Laboratories, Inc. (human) (assay: phage ELISA, HRP-labelled Fc).

Binder	O.D. 415
YDPVTGTWTSSIASWMG (peptide, T7 phage, not shown: large carriers, ends and bridges not checked) [recombinant phage displaying polypeptide SEQ ID NO: 8]	0.223
recombinant phage displaying polypeptide SEQ ID NO: 71 (protein, T7 phage, not shown: large carriers, ends and bridges not checked) DGVGPGSRGVYDPETGTWYDAAWHLGELVWATYYDPETGTWEPDWQRMLGQ	0.219
recombinant phage displaying polypeptide SEQ ID NO: 57 (protein, T7 phage, not shown: large carriers, ends and bridges not checked) GPGISAFSPGRGVYDPETGTWYDAAWHLGELVWATYYDPETGTWEPDWQRMLGQ	0.229
HWVNGRSGYDPRTGTWRSSIAYGGG (peptide, T7 phage, not shown: large carriers, ends and bridges not checked) [recombinant phage displaying polypeptide SEQ ID NO: 16]	0.373
YDPRTGTWRRSSLSYSG (peptide, T7 phage, not shown: large carriers, ends and bridges not checked) [recombinant phage displaying polypeptide SEQ ID NO: 9]	0.193
DAAWHLGELVWATYYDPETGTWVPDWERMKQH (peptide, T7 phage, not shown: large carriers, ends and bridges not checked) [recombinant phage displaying polypeptide SEQ ID NO: 33]	0.305
recombinant phage displaying polypeptide SEQ ID NO: 72 (protein, T7 phage, not shown: large carriers, ends and bridges not checked) FVSSLPNSAMYDPETGTWYDAAWHLGELVWATYYDPETGTWEPDWQRMLGQ	0.229
YDPRTGTWLLYASRLLG (peptide, T7 phage, not shown: large carriers, ends and bridges not checked) [recombinant phage displaying polypeptide SEQ ID NO: 7]	0.214
SWRRRGSSYDPRTGTWRSSIAYGGG (peptide, T7 phage, not shown: large carriers, ends and bridges not checked) [recombinant phage displaying polypeptide SEQ ID NO: 14]	0.282
YDPWTGTWRSFIWGGGG (peptide, T7 phage, not shown: large carriers, ends and bridges not checked) [recombinant phage displaying polypeptide SEQ ID NO: 6]	0.149
EAWHLGELVWATYYDPETGTWRPDWSRMSGR (peptide, T7 phage, not shown: large carriers, ends and bridges not checked) [recombinant phage displaying polypeptide SEQ ID NO: 55]	0.252
DAAWHLGELVWATYYDPETGTWLPDWQTMAQK (peptide, T7 phage, not shown: large carriers, ends and bridges not checked) [recombinant phage displaying polypeptide SEQ ID NO: 26]	0.43
DAAWHLGELVWATYYDPETGTWLPDWDYMSSK (peptide, T7 phage, not shown: large carriers, ends and bridges not checked) [recombinant phage displaying polypeptide SEQ ID NO: 37]	0.235
recombinant phage displaying polypeptide SEQ ID NO: 65 (protein, T7 phage, not shown: large carriers, ends and bridges not checked) GPYNIPDSAVYDPETGTWYDAAWHLGELVWATYYDPETGTWEPDWQRMLGQ	0.291
recombinant phage displaying polypeptide SEQ ID NO: 66 (protein, T7 phage, not shown: large carriers, ends and bridges not checked) WPLNAPSSAFYDPETGTWYDAAWHLGELVWATYYDPETGTWEPDWQRMLGQ	0.182
DAAWHLGELVWATYYDPETGTWEPDWSKMRPQ (peptide, T7 phage, not shown: large carriers, ends and bridges not checked) [recombinant phage displaying polypeptide SEQ ID NO: 34]	0.281
AGSRRAHGYDPRTGTWRSSIAYGGG (peptide, T7 phage, not shown: large carriers, ends and bridges not checked) [recombinant phage displaying polypeptide SEQ ID NO: 12]	0.267
recombinant phage displaying polypeptide SEQ ID NO: 63 (protein, T7 phage, not shown: large carriers, not fully specified; ends and bridges not checked) SNFVRSPSAWYDPETGTWYDAAWHLGELVWATYYDPETGTWEPDWQRMLGQ	0.272
recombinant phage displaying polypeptide SEQ ID NO: 67 (protein, T7 phage, not shown: large carriers, ends and bridges not checked) VPPRFSSSAQYDPETGTWYDAAWHLGELVWATYYDPETGTWEPDWQRMLGQ	0.25

Binder	O.D. 415
recombinant phage displaying polypeptide SEQ ID NO: 69 (protein, T7 phage, not shown: large carriers, ends and bridges not checked) VVRVDHSSAVYDPETGTWYDAAWHLGELVWATYYDPETGTWEPDWQRMLGQ	0.201
recombinant phage displaying polypeptide SEQ ID NO: 79 (protein, T7 phage, not shown: large carriers, ends and bridges not checked; also: displayed on T7 phage coat protein g10) GSCKFSSSCHYDPETGTWYDAAWHLGELVWATYYDPETGTWEPDWQRMLGQ	0.329
GAVYRRSFYDPRTGTWRSSIAYRGG (peptide, T7 phage, not shown: large carriers, ends and bridges not checked) [recombinant phage displaying polypeptide SEQ ID NO: 19]	0.353
DAAWHLGELVWATYYDPETGTWRPDWAVMATP (peptide, T7 phage, not shown: large carriers, ends and bridges not checked) [recombinant phage displaying polypeptide SEQ ID NO: 35]	0.32
YDPGTGTWRSYLRFGGG (peptide, T7 phage, not shown: large carriers, ends and bridges not checked) [recombinant phage displaying polypeptide SEQ ID NO: 3]	0.278
DAAWHLGELVWATYYDPETGTWEPDWKLMQRP (peptide, T7 phage, not shown: large carriers, ends and bridges not checked) [recombinant phage displaying polypeptide SEQ ID NO: 30]	0.287
TGRGRSARYDPRTGTWRSSIAYGGG (peptide, T7 phage, not shown: large carriers, ends and bridges not checked) [recombinant phage displaying polypeptide SEQ ID NO: 15]	0.396
GSVVRWRGYDPRTGTWRSSIAYGGG (peptide, T7 phage, not shown: large carriers, ends and bridges not checked) [recombinant phage displaying polypeptide SEQ ID NO: 18]	0.36
recombinant phage displaying polypeptide SEQ ID NO: 68 (protein, T7 phage, not shown: large carriers, ends and bridges not checked) FLVGLHAGAVYDPETGTWYDAAWHLGELVWATYYDPETGTWEPDWQRMLGQ	0.186
DAAWHLGELVWATYYDPETGTWQPDWDIMAGH (peptide, T7 phage, not shown: large carriers, ends and bridges not checked) [recombinant phage displaying polypeptide SEQ ID NO: 31]	0.295
recombinant phage displaying polypeptide SEQ ID NO: 80 (protein, T7 phage, not shown: large carriers, ends and bridges not checked) LIPPGGISPWYDPETGTWYDAAWHLGELVWATYYDPETGTWEPDWQRMLGQ	0.215
YDPYTGTWRSSIWVLSG (peptide, T7 phage, not shown: large carriers, ends and bridges not checked) [recombinant phage displaying polypeptide SEQ ID NO: 4]	0.165
DAAWHLGELVWATYYDPETGTWLPDWDVMVRQ (peptide, T7 phage, not shown: large carriers, ends and bridges not checked) [recombinant phage displaying polypeptide SEQ ID NO: 32]	0.352
DAAWHLGELVWATYYDPETGTWMPDWDRMLRR (peptide, T7 phage, not shown: large carriers, ends and bridges not checked) [recombinant phage displaying polypeptide SEQ ID NO: 38]	0.29
YDPGTGTWRSWLSFNVG (peptide, T7 phage, not shown: large carriers, ends and bridges not checked) [recombinant phage displaying polypeptide SEQ ID NO: 5]	0.155
DAAWHLGELVWATYYDPETGTWTPDWNAMSQR (peptide, T7 phage, not shown: large carriers, ends and bridges not checked) [recombinant phage displaying polypeptide SEQ ID NO: 39]	0.273
DAAWHLGELVWATYYDPETGTWKPDWRMMGVP (peptide, T7 phage, not shown: large carriers, ends and bridges not checked) [recombinant phage displaying polypeptide SEQ ID NO: 36]	0.287
recombinant phage displaying polypeptide SEQ ID NO: 64 (protein, T7 phage, not shown: large carriers, ends and bridges not checked) IPYGFPGRGEYDPETGTWYDAAWHLGELVWATYYDPETGTWEPDWQRMLGQ	0.213
recombinant phage displaying polypeptide SEQ ID NO: 70 (protein, T7 phage, not shown: large carriers, ends and bridges not checked) WMEFYPGRGVYDPETGTWYDAAWHLGELVWATYYDPETGTWEPDWQRMLGQ	0.189

What follows are binders tested against Fc region prepared from human monoclonal IgG by papain digestion (human) (assay: SPR, Fc immobilized).

Binder	Kd [nM]	fold decrease of binding activity against p17 [times]
polypeptide p17 (peptide) peptide: GPGISAFSPGRGVYDPETGTWYDAAWHLGELVWATYYDPETGTWEPDWQRMLGQ	1.6	
variant polypeptide p17_P46A (peptide) peptide: GPGISAFSPGRGVYDPETGTWYDAAWHLGELVWATYYDPETGTWEADWQRMLGQ	5.6	
variant polypeptide p17_D47A (peptide) peptide: GPGISAFSPGRGVYDPETGTWYDAAWHLGELVWATYYDPETGTWEPAWQRMLGQ	45	
variant polypeptide p17_W48A (peptide) peptide: GPGISAFSPGRGVYDPETGTWYDAAWHLGELVWATYYDPETGTWEPDAQRMLGQ	200	> 100
variant polypeptide p17_R50A (peptide) peptide: GPGISAFSPGRGVYDPETGTWYDAAWHLGELVWATYYDPETGTWEPDWQAMLGQ	7.8	
variant polypeptide p17_M51A (peptide) peptide: GPGISAFSPGRGVYDPETGTWYDAAWHLGELVWATYYDPETGTWEPDWQRALGQ	180	> 100
DAAWHLGELVWATYYDPETGTWLPDWQTMAQK [polypeptide pep21]	100	
DAAWHLGELVWATYYDPETGTWAPDWRLMQGQ [polypeptide pep11]	510	
DAAWHLGELVWATYYDPETGTWQPDWLYMTTR [polypeptide pep14]	120	

The binders below were run against human Fc region manufactured by Jackson ImmunoResearch Laboratories, Inc. (human) (assay: SPR, Fc immobilized, 25 C).

Binder	Kd [nM]
RSSIAYGGG [polypeptide RSS]	110000
GVVRQWSGGGGSGGGGRSSIAYGGG [polypeptide 2A1Gly]	23000

Source: patent US20150353608A1
